Results from patent US20060134719A1, “Novel serine protease” (priority 2002, published 2006).
*: point of attachment. AMC = Cc1cc(=O)oc2cc(N*)ccc12; Boc = CC(C)(C)OC(=O)*; OBn = c1ccc(CO*)cc1

How the values were obtained:
Format in all cases: biochemical
[1] = molecular target: T1, purified signal-FLAG-ARS-extracellular enzyme after the treatment with trypsin beads (Homo sapiens, UniProt Q7Z410, INS90FVSSFQKTELEASCVGCSVLNYRDGNSSVLVHFQ); assay: Detection of enzyme activity using physiologically active peptides (HPLC); conditions: peptide 0.1 mM in 100 mM ammonium hydrogen carbonate pH 8, 37° C. for 16 hours; versus buffer control
T1 construct: FLAG (N); made in house; host or cells: HEK293-EBNA
T1 sequence (Q7Z410 with tags, fused parts or gaps): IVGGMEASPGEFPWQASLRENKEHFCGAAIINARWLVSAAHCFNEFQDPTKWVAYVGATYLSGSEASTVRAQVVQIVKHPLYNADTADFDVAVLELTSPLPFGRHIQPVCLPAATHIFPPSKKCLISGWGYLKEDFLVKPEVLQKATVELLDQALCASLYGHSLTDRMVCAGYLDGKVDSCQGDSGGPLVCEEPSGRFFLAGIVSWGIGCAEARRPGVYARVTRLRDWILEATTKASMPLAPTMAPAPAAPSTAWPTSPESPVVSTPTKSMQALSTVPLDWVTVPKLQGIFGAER
T1 sequence (Q7Z410 with tags, fused parts or gaps INS90FVSSFQKTELEASCVGCSVLNYRDGNSSVLVHFQ): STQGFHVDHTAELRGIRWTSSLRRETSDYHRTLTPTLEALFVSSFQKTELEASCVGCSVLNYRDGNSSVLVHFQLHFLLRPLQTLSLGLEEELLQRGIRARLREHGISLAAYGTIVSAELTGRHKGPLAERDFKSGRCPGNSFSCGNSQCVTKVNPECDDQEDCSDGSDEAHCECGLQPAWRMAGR
Procedure: The purified signal-FLAG-ARS-extracellular enzyme after the treatment with trypsin beads in the same manner as in the method of Example 9 was used as an enzyme sample and was mixed with the following physiologically active peptides for reaction at 37° C. for 16 hours, to detect the enzyme activity. As a control without addition of enzyme, an ammonium hydrogen carbonate buffer was used. The peptides were adjusted to 0.1 mM in 100 mM ammonium hydrogen carbonate solution of pH 8. The peptides used were adenocorticotropic hormone (ACTH), angiotensin 1-13, angiotensin 1-14, angiotensin 1-7, angiotensin 1-9, angiotensin 3-7, angiotensin 3-8, angiotensin I, angiotensin II, angiotensin III, A-type natriuretic peptide (ANP), apelin 13, apelin 36, big gastrin, B-type natriuretic peptide 32 (BNP 32), bradykinin, benzoyl-Gly-His-Leu, chymostatin, C-type natriuretic peptide 22 (CNP 22), arginine-deficient bradykinin (Des-Arg-bradykinin), leucine-terminal enkephalin (Leu-enkephalin), methionine-terminal enkephalin (Met-enkephalin), growth hormone (GH), gastric inhibitory peptide (GIP), glucagon-like peptide 1 (GLP-1), glucagon-like peptide 2 (GLP-2), glucagon, growth hormone releasing factor (GRF), insulin, luteinizing hormone releasing hormone (LH-RH), melanin-concentrating hormone (MCH), α-melanocyte stimulating hormone (α-MSH), motilin, neurotensin, neuropeptide Y (NPY), oxytosin, pituitary adenylate cyclase activating polypeptide 38 (PACAP38), prolactin-releasing peptide (PrRP31), pyroglutamic apelin 13 (Pyr-apelin 13), secretin, somatostatin, substance P, [D-Argl, D-Pro2,D-Trp7,9, Leul1]-substance P, [D-Pro2,D-Trp7,9]-substance P, urotensin II, or vasoactive intestinal peptide (VIP) (all from Peptide Institute, Inc.). The cleavage of the substrate peptides was confirmed by analyzing and comparing the reaction of a sample with the enzyme solution to with that of a sample with added ammonium hydrogen carbonate buffer instead of the enzyme, by high-performance liquid chromatography (HPLC) (LC-10AS manufactured by Shimadzu Co., Ltd.).
TSK-gel ODS-80 Ts column, manufactured by TOSOH
Column temperature: 40° C.
Measurement wavelength: 220 nm
Compositions of solvent solutions
Solution A: 10 mM potassium dihydrogen phosphate buffer, pH 7.4 to 8.0
Solution B: mixture solution of 90% acetonitrile: 10% ultra-pure water

[2] = molecular target: T2, enzyme solution treated with trypsin beads (purified signal-FLAG-ARS-extracellular protein) (Homo sapiens, UniProt Q7Z410, INS90FVSSFQKTELEASCVGCSVLNYRDGNSSVLVHFQ); assay: Substrate cleavage activity of purified protein solution treated with trypsin beads; conditions: substrate 400 μM, ammonium hydrogen carbonate buffer, 37° C. for one hour
T2 construct: FLAG (N); made in house; host or cells: HEK293-EBNA
T2 sequence (Q7Z410 with tags, fused parts or gaps): T1 sequence (Q7Z410 with tags, fused parts or gaps)
T2 sequence (Q7Z410 with tags, fused parts or gaps INS90FVSSFQKTELEASCVGCSVLNYRDGNSSVLVHFQ): T1 sequence (Q7Z410 with tags, fused parts or gaps INS90FVSSFQKTELEASCVGCSVLNYRDGNSSVLVHFQ)
Procedure: By the same method as in Example 9, an enzyme solution treated with trypsin beads was obtained, using the purified protein solution. Then, the substrate cleavage activity of the enzyme solution was measured by the same method as in Example 8. Specifically, synthetic peptide substrates were diluted in ammonium hydrogen carbonate buffer to become a final concentration of 400 μM in a 96-well plate. After the enzyme solution described above was mixed into the resulting diluted substrates, the mixture were incubated at 37° C. for one hour. Subsequently, the fluorescence of AMC released from the synthetic peptide by enzymatic cleavage were measured.

[3] = molecular target: T3, purified protein solution (signal-FLAG-ARS-extracellular protein) (Homo sapiens, UniProt Q7Z410, INS90FVSSFQKTELEASCVGCSVLNYRDGNSSVLVHFQ); assay: Enzyme activity of purified recombinant protein using synthetic peptides; conditions: substrate 200 μM or 400 μM, ammonium hydrogen carbonate buffer, 37° C. for one hour; versus buffer control
T3 construct: made in house; host or cells: HEK293-EBNA
T3 sequence (Q7Z410 with tags, fused parts or gaps INS90FVSSFQKTELEASCVGCSVLNYRDGNSSVLVHFQ): T1 sequence (Q7Z410 with tags, fused parts or gaps INS90FVSSFQKTELEASCVGCSVLNYRDGNSSVLVHFQ)
T3 sequence (Q7Z410 with tags, fused parts or gaps): T1 sequence (Q7Z410 with tags, fused parts or gaps)
Procedure: Using a cell expressing the signal-FLAG-ARS-extracellular protein, a recombinant protein secreted into the liquid culture of the cell was extracted and purified. Specifically, the transfected HEK293EBNA cells were incubated by the same method as in Example 7 to about 80% confluence, from which the culture medium was then removed. Instead, a culture medium containing 4% serum was added, for further incubation under conditions of 37° C. and a carbon dioxide concentration of 5% for another 4 days. The culture supernatant was recovered 4 days later; filtered through a 0.22-μm filter (Zartor); and adsorbed on an ANTI-FLAG M2-AGAROSE AFFINITY GEL (Sigma) column equilibrated with TBS buffer by a routine method. Subsequently, about 50 ml of the TBS buffer was used for washing the column. Then, 6 ml of […] glycine hydrochloride solution of pH 2.2 was passed through the column to obtain each 1 ml fraction. To the separated fractions, 100 μl of 1 M Tris-HCl of pH 8 was immediately added to adjust the pH. The individual fractions thus obtained were confirmed by Western blotting using an antibody against the FLAG tag added to the N terminus (mouse anti-FLAG monoclonal antibody M2; Sigma). Specifically, the eluted fractions were electrophoresed on SDS/4% to 20% acrylamide gel (Daiichi Pure Chemicals Co., Ltd.) (under reducing conditions) and then transferred on PVDF membrane (Millipore) using a blotting apparatus. After adding Block Ace (DAINIPPON PHARMACEUTICAL CO., LTD.) for blocking to the transferred PVDF membrane, a biotinylated mouse anti-FLAG monoclonal antibody (M2; Sigma) and horseradish peroxidase-labeled streptoavidin (Amersham Pharmacia) were sequentially reacted. After reaction, it was confirmed that which eluted fractions contained the protein, using ECL Western blotting detection system (Amersham Pharmacia).
Using a synthetic peptides which have the C terminus labeled wit MCA (4-methyl-coumaryl-7-amide) by the same method as in Example 8, the cleavage activity of the enzyme purified in Example 10 was detected. Unless otherwise described, the method described in a paper (Yasuoka, S. et al., Am. J. Respir. Cell Mol Biol., Vol. 16, 300-308, 1997) was used. Specifically, using a synthetic peptides (Peptide Institute, Inc.) which have the C terminus labeled with MCA as substrates, the substrates were diluted with ammonium hydrogen carbonate buffer to become a final concentration of 200 μM or 400 μM in a 96-well plate. After the purified protein solution obtained in Example 10 or the ammonium hydrogen carbonate buffer as a control was added to the substrate solutions, the resulting mixtures were incubated at 37° C. for one hour. Subsequently, the fluorescence of AMC (7-amino-4-methyl-coumarin) released from the synthetic peptide by enzymatic cleavage was measured at a wavelength of 460 nm for measurement, using an excitation wavelength of 390 nm with a fluorescent plate reader (SAFIRE manufactured by TECAN). In FIG. 1, the open bar expresses buffer control, while the solid bar expresses the case of using purified protein solution. The first bar represents the case of using Boc-Glu(OBzl)-Ala-Arg-MCA as a substrate; the second bar represents the case of using Boc-Phe-Ser-Arg-MCA as a substrate; the third bar represents the case of using Boc-Leu-Ser-Thr-Arg-MCA as a substrate; the fourth bar represents the case of using Boc-Gln-Arg-Arg-MCA as a substrate; the fifth bar represents the case of using Suc-Ala-Ala-Pro-Phe-MCA as a substrate; the sixth bar represents the case of using Suc-Ala-Pro-Ala-MCA as a substrate; the seventh bar represents the case of using Boc-Glu-Lys-Lys-MCA as a substrate; the eighth bar represents the case of using Boc-Leu-Lys-Arg-MCA as a substrate; the ninth bar represents the case of using Boc-Leu-Gly-Arg-MCA as a substrate; and the tenth bar represents the case of using Boc-Asp(OBzl)-Pro-Arg-MCA as a substrate.

Substance | cleavage of physiologically active peptide by enzyme sample (HPLC) [1] | cleavage of synthetic peptide by enzyme solution treated with trypsin beads (fluorescence of released AMC) [2] | cleavage of synthetic peptide by purified protein solution (fluorescence of released AMC) [3]
melanin-concentrating hormone [MCH] | selectively cleaved |  | 
A-type natriuretic peptide [ANP] | selectively cleaved |  | 
Boc-Leu-Ser-Thr-Arg-MCA (Boc-LSTR-{AMC}; SMILES Cc1cc(=O)oc2cc(NC(=O)[C@H](CCCNC(=N)N)NC(=O)[C@@H](NC(=O)[C@H](CO)NC(=O)[C@H](CC(C)C)NC(=O)OC(C)(C)C)[C@@H](C)O)ccc12) [synthetic peptide substrate labeled with MCA at the C terminus] |  | cleaved | cleaved
Boc-Asp(OBn)-Pro-Arg-{AMC} |  | cleaved | cleaved
C-type natriuretic peptide 22 [CNP] | selectively cleaved |  | 
Boc-Glu-Lys-Lys-{AMC} |  | cleaved | cleaved
Boc-Leu-Gly-Arg-{AMC} |  | cleaved | cleaved
Boc-Leu-Lys-Arg-{AMC} |  | cleaved | cleaved

The remaining lines, values ahead:

cleavage of physiologically active peptide by enzyme sample (HPLC) [1] | cleavage of synthetic peptide by enzyme solution treated with trypsin beads (fluorescence of released AMC) [2] | cleavage of synthetic peptide by purified protein solution (fluorescence of released AMC) [3] | Substance
selectively cleaved |  |  | neuropeptide Y [NPY]
selectively cleaved |  |  | α-melanocyte stimulating hormone [α-MSH]
selectively cleaved |  |  | vasoactive intestinal peptide [VIP]
